The values below come from patent US20230416351A1 (Novartis, published 2023).

The target in the assay is T1, recombinant VEGF165 protein (human, UniProt P15692 27-191).
T1 construct: mature; the 165-residue isoform is meant; also called VEGF-A
The assay can be described thus: SPR in vitro binding, drug and recombinant VEGF165, 37 C. Here is the method:
Drug-specific parameters used are defined based upon which drug(s) is included in the specific simulation. These values are shown in Table 2 for brolucizumab, aflibercept, and ranibizumab. The drug:VEGF binding parameter values (the dissociation rate constant “koff” and the equilibrium binding constant “Kd”) were defined on the basis of a surface plasmon resonance (SPR) in vitro binding experiment with drug and recombinant VEGF165 protein at 37° C. according to manufacturer's instructions. The hydrodynamic radius values for drug (“rh_R”) and associated drug:VEGF complexes (“rh_VR” and “rh_RVR”) were sourced from literature reports (Caruso et. al., Mol. Pharmaceutics 2020, 17, 695-709) or from computational structure models of drug and VEGF. This includes estimated hydrodynamic radius values for the heterogenous complexes consisting of one VEGF dimer and two different VEGF antagonists (“rh_ROVR”). Drug-independent parameters used are used to describe VEGF production and distribution within and out of the eye, as well as general biophysical properties of the eye such as permeability coefficients for the Inner Limiting Membrane (ILM) and Retinal Pigment Epithelium (RPE) and the clearance rate from the aqueous chamber.

T1 sequence (P15692 other isoform, or with tags, fused parts or gaps): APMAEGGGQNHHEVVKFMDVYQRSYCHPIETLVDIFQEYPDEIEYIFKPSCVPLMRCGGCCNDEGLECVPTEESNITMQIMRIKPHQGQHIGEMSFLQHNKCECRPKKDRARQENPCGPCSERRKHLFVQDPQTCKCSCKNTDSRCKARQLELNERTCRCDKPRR

B1: brolucizumab (scFv)
scFv: MEIVMTQSPSTLSASVGDRVIITCQASEIIHSWLAWYQQKPGKAPKLLIYLASTLASGVPSRFSGSGSGAEFTLTISSLQPDDFATYYCQNVYLASTNGANFGQGTKLTVLGGGGGSGGGGSGGGGSGGGGSEVQLVESGGGLVQPGGSLRLSCTASGFSLTDYYYMTWVRQAPGKGLEWVGFIDPDDDPYYATWAKGRFTISRDNSKNTLYLQMNSLRAEDTAVYYCAGGDHNSGWGLDIWGQGTLVTVSS
notes: Humanized single-chain Fv (VL-linker-VH), ~26 kDa; also called Beovu; VEGF antagonist A
What is called Kd is the constant that tells how readily two partners part at equilibrium. Consider B1, for which the Kd was 0.101 nM.
